This is an account of results in publication PMC4633990.

Experiment [1] deals with HIV-1 Env of strain AC10.29 (clade B) on pseudovirus AC10.29.SG3 (HIV-1 AC10.29 (clade B)).
The target in experiment [2] is HIV-1 Env of strain ZM53.12 (clade C) on pseudovirus ZM53.12.SG3 (HIV-1 ZM53.12 (clade C)).
Experiment [3] addresses HIV-1 Env on HIV-1 IIIb-infected CEM-NKr-CCR5 cells (CEM-IIIb) (HIV-1 IIIb) (UniProt P04578).

“VRC07-αCD3 bispecific immunomodulatory protein (bispecific antibody)”: the IC50 of neutralisation of Env-pseudotyped virus AC10.29.SG3 (clade B), TZM-bl target cells, luciferase in experiment [1] is 0.346 µg/mL. For the same substance, the IC50 of neutralisation of Env-pseudotyped virus ZM53.12.SG3 (clade C), TZM-bl target cells, luciferase in experiment [2] stood at 0.24 µg/mL. This substance came in with an IFN-γ intracellular cytokine staining of human CD4 T cells co-cultured with HIV-infected CEM cells and 0.5 μg ml^−1 protein, relative to unstimulated CD4 T cells (1.4-fold in the absence of HIV-1) in experiment [3] of 9 fold.
